# Source: the DeepSol protein solubility set
# Assay: soluble on expression in E. coli; label from the status in PepcDB or PDB records
row,Sequence,soluble on expression in E. coli
1,MEKTPAETTAVSAGNVPRDSIPCITNVSADTRGRTRPSRPATVPQRRPARIGHFRRRSASLSFLDWPDGSVTEGVRTTSASVAASAARFDEIRRRRQSINDEMKERTLEDALAVELVNETFRCSVTSDARKDLQKLVRRVSGTVLRLSWPNGWFFTYCDLLRVGYFGHLNIKGLEKTFLCCDKFLPGLEHHHHHH,not soluble
2,MEKVKVKNPIVELDGDEMARVMWKMIKEKLILPYLDIQLVYFDLGIKKRDETDDQITIEAAKAIKKYGVGVKCATITPDAERVKEYNLKKAWKSPNATIRAYLDGTVFRKPIMVKNVPPLVKRWKKPIIIGRHAYGDIYNAVEAKVEGPAEVELVVRNKENKTLLVHKFEGNGVVMAMHNLEKSIRSFAQSCINYAISEKVDIWFATKDTISKVYHAYFKDIFQEEVDKRKEELEKAGVNYRYMLIDDAAAQILRSEGGMLWACMNYEGDIMSDMIASGFGSLGLMTSVLVSPDGVYEFEAAHGTVRRHYYRYLKGEKTSTNPTASIFAWTGAIRKRGELDGTPEVCEFADKLEKAVINTIESGVITKDLQPFTEPPIDKYVTLEEFIDEVKKNLEKLL,soluble
3,MELAAGSFSEEQFWEACAELQQPALAGADWQLLVETSGISIYRLLDKKTGLYEYKVFGVLEDCSPTLLADIYMDSDYRKQWDQYVKELYEQECNGETVVYWEVKYPFPMSNRDYVYLRQRRDLDMEGRKIHVILARSTSMPQLGERSGVIRVKQYKQSLAIESDGKKGSKVFMYYFDNPGGQIPSWLINWAAKNGVPNFLKDMARACQNYLKKT,soluble
4,MELKDDDFEKISELGAGNGGVVFKVSHKPSGLVMARKLIHLEIKPAIRNQIIRELQVLHECNSPYIVGFYGAFYSDGEISICMEHMDGGSLDQVLKKAGRIPEQILGKVSIAVIKGLTYLREKHKIMHRDVKPSNILVNSRGEIKLCDFGVSGQLIDSMANSFVGTRSYMSPERLQGTHYSVQSDIWSMGLSLVEMAVGRYPIPPPDAKELELMFGCQVEGDAAETPPRPRTPGRPLSSYGMDSRPPMAIFELLDYIVNEPPPKLPSGVFSLEFQDFVNKCLIKNPAERADLKQLMVHAFIKRSDAEEVDFAGWLCSTIGLNQPSTPTHAAGVLEHHHHHH,soluble
5,MELKYVIPNMEKTFGQLEYAGEGNIEQRRINGRPTILSRSYNLYSTIQRADDIVVILPSEAGEKHFESDEKVKLINPHITAEGYKIGNRGFTNYIMHADDMVKALEHHHHHH,not soluble
6,MELLQGKTFVVMGVANQRSIAWGIARSLHNAGAKLIFTYAGERLERNVRELADTLEGQESLVLPCDVTNDEELTACFETIKQEVGTIHGVAHCIAFANRDDLKGEFVDTSRDGFLLAQNISAFSLTAVAREAKKVMTEGGNILTLTYLGGERVVKNYNVMGVAKASLEASVKYLANDLGQHGIRVNAISAGPIRTLSAKGVGDFNSILREIEERAPLRRTTTQEEVGDTAVFLFSDLARGVTGENIHVDSGYHILG,soluble
7,MELSLSRVHFPVTTLGPGRRLGIWFQGCSIRCPGCISADTWGPGRRRIALARLLADIQPWLEQAEGITVSGGEPFEQFAALLALLGELRRRSRADILVYSGYPLEHLHAQLEQAAGLIDALISDPYQQHAEQSLALRGSDNQRLSLLTELGRARLGGYQRPLREDDKALDLMFDHDGSVWMAGIPRRDDLLRLQDLLREQGHQLSVSAHRPR,not soluble
8,MELVVKSVAAASVKTATLVIPVGENRKLGAVAKAVDLASEGAISAVLKRGDLAGKPGQTLLLQNLQGLKAERVLLVGSGKDEALGDRTWRKLVASVAGVLKGLNGADAVLALDDVAVNNRDAHYGKYRLLAETLLDGEYVFDRFKSQKVEPRALKKVTLLADKAGQAEVERAVKHASAIATGMAFTRDLGNLPPNLCHPSFLAEQAKELGKAHKALKVEVLDEKKIKDLGMGAFYAVGQGSDQPPRLIVLNYQGGKKADKPFVLVGKGITFDTGGISLKPGAGMDEMKYDMCGAASVFGTLRAVLELQLPVNLVCLLACAENMPSGGATRPGDIVTTMSGQTVEILNTDAEGRLVLCDTLTYAERFKPQAVIDIATLTGACIVALGSHTTGLMGNNDDLVGQLLDAGKRADDRAWQLPLFDEYQEQLDSPFADMGNIGGPKAGTITAGCFLSRFAKAYNWAHMDIAGTAWISGGKDKGATGRPVPLLTQYLLDRAGA,soluble
9,MENDMKSLSAAAQACVKKMRDAKVNEACIRTFIAQHVMVSKGETGSIPDSAIMPVDSLDALDSLTIECDNAVLQSTVVLKLNGGLGTGMGLCDAKTLLEVKDGKTFLDFTALQVQYLRQHCSEHLRFMLMDSFNTSASTKSFLKARYPWLYQVFDSEVELMQNQVPKILQDTLEPAAWAENPAYEWAPPGHGDIYTALYGSGKLQELVEQGYRYMFVSNGDNLGATIDKRVLAYMEKEKIDFLMEVCRRTESDKKGGHLARQTVYVKGKDGQPDAEKRVLLLRESAQCPKADMESFQDINKYSFFNTNNLWIRLPVLLETMQEHGGTLPLPVIRNEKTVDSSNSASPKVYQLETAMGAAIAMFESASAIVVPRSRFAPVKTCADLLALRSDAYVVTDDFRLVLDDRCHGHPPVVDLDSAHYKMMNGFEKLVQHGVPSLVECKRVTVKGLVQFGAGNVLTGTVTIENTDSASAFVIPDGAKLNDTTASPQQSTNKMRPLEHHHHHH,soluble
10,MENFEIWVEKYRPRTLDEVVGQDEVIQRLKGYVERKNIPHLLFSGPPGTGKTATAIALARDLFGENWRDNFIEMNASDERGIDVVRHKIKEFARTAPIGGAPFKIIFLDEADALTADAQAALRRTMEMYSKSCRFILSCNYVSRIIEPIQSRCAVFRFKPVPKEAMKKRLLEICEKEGVKITEDGLEALIYISGGDFRKAINALQGAAAIGEVVDADTIYQITATARPEEMTELIQTALKGNFMEARELLDRLMVEYGMSGEDIVAQLFREIISMPIKDSLKVQLIDKLGEVDFRLTEGANERIQLDAYLAYLSTLAKK,soluble
11,MENFLHKWFASEYDLYEEDLEKASALVNSHNIRTVVNVMFQHPIFTVNMMAALTSLPEATVRRYLNRFEEQQLIFSDGRMRSKTYYYYNLLDQLR,not soluble
12,MENHDLVIVGGGISGLQAAISAKKSGVQDIVLIEAEDSLGGILNQCIYTGFGMEDFKEELTGTEYVQRFIDEFLELNIEYKLNTTVIKISKNKVITAVSPNEGIIEIKACSIIFAAGAVEKPQKSIRVLTKDLSGIYSALTVGRFINIHGYMPGKSIVILGANKIGNALANRIFIEGGKVKAVIDSEVGFDERNEIIEFLAEINIPFLYNYNIVKIKGSERIEGIYISDENGEKFISCDTLILALKLNPNDKILREANIKILNKERNEINTNVPGVFIVGNALYIHESNEGSPLENRKAGEMSAEYIRATLLEHHHHHH,not soluble
13,MENIMKITIINGSPRFKKSNSEILKNYLLNFIKENEINEFFSFSIKLDDDIKTDIYNSDILIFIFPLYVDSIPANLLDLLVRFEDENVINSKTKIYCIVNNGFFEGVQNHLAISQIRCWSKKVNAQWGQGIGVGGGELLSHLKKVPLGQGPLKNLGIILEKFSKNILSLKGDEDIYINPNYPKILYFLQANISWFIEGRKNKLKFRDLFKKILEHHHHHH,not soluble
14,MENKIQELTDKIYREGVEKGNEEAQRLIANAQEEAKKIIEDARKEADSIVAASRKSADELADNTKSELKLFSGQAVNALKSEIATMVTDKLITASVKDFAQDKDYLNAFIVALASKWSVDEPIVISTADAESLKKYFAAHAKALLDKGVTIEQVNGIKTLFTVSPADGSYKVNFGEEEFMNYFKAFLRPQLVEMLF,not soluble
15,MENKTIQLFGNITGGPIELHSQTGSRRRRDTVENAGKSAWDTAGDVGKSVIDTVENAGAAVKNGASDLDEKLMGSG,not soluble
16,MENKTLDHTLQGAPLWLTNFVLVYQKLSKENLQLLATIYHENVTFIDPLHTVEGFDDLYQYFENLYQNLSACDFVIEEVIWQDSQASLFWTMTYQHPKLNKGKMVTVVGTSHIKGEGDKVIYHRDFLDLGAMLYEQLPILGKLTKWIKTKAAN,not soluble
17,MENLKNIQPREDFNWEEFEAGGVHAAVSRQEQEAAYDKTLNTIKEKEVVMGRVTAINKREVVINVGYKSEGVVPATEFRYNPELKVGDEVEVYIENQEDKKGQLVLSHRKARAARSWERVNEALEKDEIVKGYVKCRTKGGMIVDVFGIEAFLPGSQIDVRPIRDYDAFVEKTMEFKIVKINQEYKNVVVSHKVLIEAELEQQKKEII,not soluble
18,MEPIWRNYPYPTYPGHHNFQFDPLLSDGSHTGVNQLGGVFVNGRPLADTVRAQIVEMSQHGTRPCDISRQLKVSHGCVSKILGRYYSTGSVRPGVIGGSKPKVATPRVVECIAGYKRANPTMFAWEIRQKLIEDQICGEENVPSVSSINRIVRNKSFMAQLAAPTSVTSSAARPSSATSHHQRSPPRGVQQHMQQSTSVQQLQQLQLTSAATVNSLMTPPAFAMPGTAYSINGLLGTLPQPSLLDDKFTNLSTQSADMSLVYSTGLVGEHDWTMRTPMVILPQNYCGQL,not soluble
19,MEPKRSRLVVCAPEPSHAREFPDVAVFSGGRANASQAERLARAVGRVLADRGVTGGARVRLTMANCADGPTLVQINLQVGDTPLRAQAATAGIDDLRPALIRLDRQIVRASAQWCPRPWPDRPRRRLTTPAEALVTRRKPVVLRRATPLQAIAAMDAMDYDVHLFTDAETGEDAVVYRAGPSGLRLARQHHVFPPGWSRCRAPAGPPVPLIVNSRPTPVLTEAAAVDRAREHGLPFLFFTDQATGRGQLLYSRYDGNLGLITPTGDGVADGLA,soluble
20,MEPPLTVGAWTMTADSTVTEPIAAAATTTIVADVAIVGGGLAGSLAAAVLARAGHRVALVDKRAVYPDEFRVEKIGGPQLEMFRRLGFIRGLASVACPYDQVLNVREGKVVDVSVGQAYGLPYAGLVAMARGQIPDPSSLIVDEVTAVTCSDDVQHLELASGRRLNARLVVLATGMAGALGYKLGIRRRVLAAGHSVSFGFTIVRRDGTPFDFKALTCYGERTSDGVDYLSLFPVPAGMRANLFMFRDPTDPVMRDLRRDTEATVLRLLPGLQPYLGDFRVTDRVQNWVMDLSVVEGHLQPGVVLIGDAFQTNCPAAGTGVARLLVDVERLCTEYAPRWLATEGMGKEKISEFYSDRDKIAADQQSLKMARFRQALTSRDDISWDVRRRLHFLRRSITHRVDQMRPGWLAQVRSALRALEHHHHHH,not soluble
21,MEPPSSRPEEPPSWEDLYKINLMPSELFLKFRKELQGLRVGVNLELYNEPTNDYHAKLVLKPLCPERKWKFIYEPLHQEVRVLSKKIPVTRFLNLQVGVGHNFQMNAIGWKWKLTSCLGGDGVSRIRNKTTLGLSPGIDFRFGWRADFVLPEVTGALGTEEPLFNMSSGRLEASLDRVEAIVTHSDYL,soluble
22,MEPTGLMVAAPTASLPEAIGGERNWDYRFTWIRDTAYVIEALSSIGYKYEATEFLYDMMDMITRDNRIRTIYSIDDSNDLEERIIDYEGYRGSRPVRIGNKAVDQLQIDQYGSIVRAIHSMAKAGGIVNSYLWDFVEQVMAKIEYLWKYPDSSIWEFRTEPKQYVYSKVMSWAAFDSAISMAKDLGLSAPIKQWKSIQDEIKKEVLEKGFDTDTNSFVQYYGSKNIDAALLRLPILGFIPANDEKFLGTLSRIEKELMVDGYLFKRYREDDGLKGDEGSFLMLTFWYIEDLILMKRLKKAREVLESVLEKANHLGLYSEEIDEKSGDFLGNFPQALSHLGVIRVAPKLEEALLKRTSKINSLEHHHHHH,not soluble
23,MEQKQRRFTKNIFVLDVTAKTLCGAIAKLSSQPYCQIKIGRVVAFKPVKNPEPKGYVLNVPGPGAYRIQDGQDIISLMLTPHGVEATTERWEEWKFEGVSVTPMATRVQYNGVMVDAEIKYCKGMGIVQPYMRNDFDRNEMPDLPGVMRSNYDIRELRQKIKNERESAPRLQVHSVARPGSENLYPQ,soluble
